From patent US20220177594A1
Where a chain is given by its changes, count along the chain named. Each block holds one binder with its values, some of them ahead of it.

Key:
[1] = target: Canine_OSMR_hlgG1_Fc (canine); test: SPR Biacore
[2] = target: Feline_OSMR_hlgG1_Fc (feline); test: SPR Biacore
Feline_OSMR_hlgG1_Fc (feline), sequence (chain, as listed by the source limits assumed, form in doubt): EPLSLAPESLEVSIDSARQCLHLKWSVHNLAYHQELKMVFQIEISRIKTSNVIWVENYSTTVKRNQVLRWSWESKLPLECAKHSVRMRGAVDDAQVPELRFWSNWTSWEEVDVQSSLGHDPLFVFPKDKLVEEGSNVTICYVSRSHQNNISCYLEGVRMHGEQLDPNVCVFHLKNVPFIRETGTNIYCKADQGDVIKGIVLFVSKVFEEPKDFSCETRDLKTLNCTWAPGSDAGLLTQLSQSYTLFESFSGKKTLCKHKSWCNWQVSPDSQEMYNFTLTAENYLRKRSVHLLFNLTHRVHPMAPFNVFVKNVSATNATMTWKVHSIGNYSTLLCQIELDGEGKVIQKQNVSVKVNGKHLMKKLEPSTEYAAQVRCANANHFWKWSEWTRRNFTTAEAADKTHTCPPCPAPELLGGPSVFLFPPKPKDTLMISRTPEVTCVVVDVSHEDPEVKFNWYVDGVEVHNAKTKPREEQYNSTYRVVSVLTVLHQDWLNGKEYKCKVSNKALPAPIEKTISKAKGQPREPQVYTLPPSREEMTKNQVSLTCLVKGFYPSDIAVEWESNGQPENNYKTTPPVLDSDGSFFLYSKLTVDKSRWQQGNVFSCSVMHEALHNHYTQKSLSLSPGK

Canine_OSMR_hlgG1_Fc (canine), sequence (chain, as listed by the source limits assumed, form in doubt): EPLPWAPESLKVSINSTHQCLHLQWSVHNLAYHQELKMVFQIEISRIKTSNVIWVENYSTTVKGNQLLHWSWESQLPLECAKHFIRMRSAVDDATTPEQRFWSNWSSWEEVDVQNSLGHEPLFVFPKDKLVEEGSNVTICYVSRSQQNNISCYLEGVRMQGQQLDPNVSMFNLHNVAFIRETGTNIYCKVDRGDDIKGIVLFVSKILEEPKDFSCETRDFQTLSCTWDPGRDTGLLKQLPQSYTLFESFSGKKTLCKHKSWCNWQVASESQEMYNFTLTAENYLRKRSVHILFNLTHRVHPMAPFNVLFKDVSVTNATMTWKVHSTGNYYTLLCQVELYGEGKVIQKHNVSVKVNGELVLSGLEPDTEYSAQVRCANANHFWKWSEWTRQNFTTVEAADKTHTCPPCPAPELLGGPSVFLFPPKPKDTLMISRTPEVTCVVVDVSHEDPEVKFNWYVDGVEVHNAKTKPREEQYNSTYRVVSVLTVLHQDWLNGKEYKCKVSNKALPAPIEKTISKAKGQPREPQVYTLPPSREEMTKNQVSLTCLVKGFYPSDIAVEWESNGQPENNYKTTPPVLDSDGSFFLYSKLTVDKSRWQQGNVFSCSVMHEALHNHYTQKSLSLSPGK

B3: CAN_19F07_1.1 (antibody)
heavy: EVQLVESGGDLVKPGGSLRLSCVASGFTFSDYYMAWVRQAPGKGLQWVANINYDGSSTYYLDSLKSRFTISRDNAKNTLYLQMNSLRAEDTAMYYCVRGLTWDFDVWGQGTLVTVSSASTTAPSVFPLAPSCGSTSGSTVALACLVSGYFPEPVTVSWNSGSLTSGVHTFPSVLQSSGLYSLSSMVTVPSSRWPSETFTCNVAHPASKTKVDKPVPKRENGRVPRPPDCPKCPAPEMLGGPSVFIFPPKPKDTLLIARTPEVTCVVVDLDPEDPEVQISWFVDGKQMQTAKTQPREEQFNGTYRVVSVLPIGHQDWLKGKQFTCKVNNKALPSPIERTISKARGQAHQPSVYVLPPSREELSKNTVSLTCLIKDFFPPDIDVEWQSNGQQEPESKYRTTPPQLDEDGSYFLYSKLSVDKSRWQRGDTFICAVMHEALHNHYTQESLSHSPGK
light: EIVMTQSPASLSLSQEEKVTITCKASQDVDTAVAWYQQKPGQAPKLLIYLASTRHTGVPSRFSGSGSGTDFSFTISSLEPEDVAVYYCQQYSRFPLTFGQGTRNDAQPAVYLFQPSPDQLHTGSASVVCLLNSFYPKDINVKWKVDGVIQDTGIQESVTEQDKDSTYSLSSTLTMSSTEYLSHELYSCEITHKSLPSTLIKSFQRSEC
Kd [1]: 9.13 nM | koff [1]: 0.000334 s⁻¹ | kon [1]: 36600 M⁻¹ s⁻¹ | Kd [2]: 0.32 nM | koff [2]: 3.55e-05 s⁻¹ | kon [2]: 111000 M⁻¹ s⁻¹

B4: CAN_19F07_2.1 (antibody)
heavy: B3 heavy with G15A, R19T, V23L, A40T, G42E, A88D, M93V, V97A
light: B3 light
Kd [1]: 8.3 nM | koff [1]: 0.00022 s⁻¹ | kon [1]: 26400 M⁻¹ s⁻¹ | Kd [2]: 0.198 nM | koff [2]: 1.12e-05 s⁻¹ | kon [2]: 56700 M⁻¹ s⁻¹

B5: CAN_19F07_2.2 (antibody)
heavy: B3 heavy with G15A, R19T, V23L, A40T, G42E, A88D, M93V, V97A
light: DIVMTQTPLSLSVSPGETASISCKASQDVDTAVAWFRQKPGQSPQRLIYLASTRHTGVPDRFSGSGSGTDFTLRISRVEADDTGVYYCQQYSRFPLTFGQGTRNDAQPAVYLFQPSPDQLHTGSASVVCLLNSFYPKDINVKWKVDGVIQDTGIQESVTEQDKDSTYSLSSTLTMSSTEYLSHELYSCEITHKSLPSTLIKSFQRSEC
Kd [2]: 24 nM | koff [2]: 0.00113 s⁻¹ | kon [2]: 47000 M⁻¹ s⁻¹

B6: Canine_OSM (ligand)
chain: SCSDKYPELLGQLQKQADFMQHTNTLLDLYIRSQGLDKNGLKEHCRERPGAFPSKDALQRLSRRVFLRTLDTTLGQVLLRLAALEQDIPKAQDLEMLSGVKLNIRGFKNNIHCMAQLLPGSSETTEPTPTSPGASPSPTPTLDTFQRRLEGCRFLHGYHRFMRSVGQVFREWGKSLSRSRR
Kd [1]: 43.6 nM | koff [1]: 0.003 s⁻¹ | kon [1]: 68700 M⁻¹ s⁻¹ | Kd [2]: 41.1 nM | koff [2]: 0.00423 s⁻¹ | kon [2]: 103000 M⁻¹ s⁻¹

B7: FEL_10F07_2.2 (antibody)
heavy: DVQLVESGGDLVKPGGSLRLTCVASGFTFSSYAMSWVRQAPGKGLQWVAYISSGGDYFYYADTVKGRFTISRDDAKNTLYLQMSSLKTEDTATYYCTGDPITGTFAYWGQGTLVTVSSASTTAPSVFPLAPSCGTTSGATVALACLVLGYFPEPVTVSWNSGALTSGVHTFPAVLQASGLYSLSSMVTVPSSRWLSDTFTCNVAHPPSNTKVDKTVRKTDHPPGPKPCDCPKCPPPEAAGAPSIFIFPPKPKDTLSISRTPEVTCLVVDLGPDDSDVQITWFVDNTQVYTAKTSPREEQFNSTYRVVSVLPILHQDWLKGKEFKCKVNSKSLPSPIERTISKAKGQPHEPQVYVLPPAQEELSRNKVSVTCLIKSFHPPDIAVEWEITGQPEPENNYRTTPPQLDSDGTYFVYSKLSVDRSHWQRGNTYTCSVSHEALHSHHTQKSLTQSPGK
light: DITMTQSPGSLAGSPGQQVTMNCRASQDITNYLNWYQQKPGQHPKLLIYYTSTLHSGVPDRFSGSGSGTDFTLTISNLQAEDVASYYCQQGHMLPWTFGQGTRSDAQPSVFLFQPSLDELHTGSASIVCILNDFYPKEVNVKWKVDGVVQNKGIQESTTEQNSKDSTYSLSSTLTMSSTEYQSHEKFSCEVTHKSLASTLVKSFQRSECQRE
Kd [1]: 4.99 nM | koff [1]: 0.000903 s⁻¹ | kon [1]: 181000 M⁻¹ s⁻¹ | Kd [2]: 1.21 nM | koff [2]: 0.000457 s⁻¹ | kon [2]: 376000 M⁻¹ s⁻¹

Next, values leading:

Kd [1]: 10.3 nM | koff [1]: 0.000294 s⁻¹ | kon [1]: 28500 M⁻¹ s⁻¹ | Kd [2]: 0.783 nM | koff [2]: 6.37e-05 s⁻¹ | kon [2]: 81300 M⁻¹ s⁻¹
B1: FEL_19F07_1.1 (antibody)
heavy: DVQLVESGGDLVKPGGSLRLTCVASGFTYSDYYMAWVRQAPGKGLQWVANINYDGSSTYYLDSLKSRFTISRDNAKNTLYLQMNSLKTEDTATYYCVRGLTWDFDVWGQGTLVTVSSASTTAPSVFPLAPSCGTTSGATVALACLVLGYFPEPVTVSWNSGALTSGVHTFPAVLQASGLYSLSSMVTVPSSRWLSDTFTCNVAHPPSNTKVDKTVRKTDHPPGPKPCDCPKCPPPEAAGAPSIFIFPPKPKDTLSISRTPEVTCLVVDLGPDDSDVQITWFVDNTQVYTAKTSPREEQFNSTYRVVSVLPILHQDWLKGKEFKCKVNSKSLPSPIERTISKAKGQPHEPQVYVLPPAQEELSRNKVSVTCLIKSFHPPDIAVEWEITGQPEPENNYRTTPPQLDSDGTYFVYSKLSVDRSHWQRGNTYTCSVSHEALHSHHTQKSLTQSPGK
light: EIQMTQSPSSLSASPGDRVTITCKASQDVDTAVAWYQQKPGKVPKLLIYLASTRHTGVPSRFSGSGSGTDFTLTISSLEPEDAATYYCQQYSRFPLTFGQGTRSDAQPSVFLFQPSLDELHTGSASIVCILNDFYPKEVNVKWKVDGVVQNKGIQESTTEQNSKDSTYSLSSTLTMSSTEYQSHEKFSCEVTHKSLASTLVKSFQRSECQRE

Kd [2]: 0.108 nM | koff [2]: 4.07e-07 s⁻¹ | kon [2]: 3790 M⁻¹ s⁻¹
B2: FEL_19F07_2.1 (antibody)
heavy: B1 heavy with D10N, Y29F, V97A
light: B1 light
